Tests used:
[1] = molecular target: human NGF (construct not stated) (human) (UniProt P01138); experiment: not stated; Kd for the antigen; method and data in Supplementary Table 2
[2] = molecular target: MEDI1912 IgG (human); experiment: native MS; nESI-IMS-MS, 1 mg/mL dialysed into 150 mM ammonium acetate, pH 6; dimer estimated with respect to the monomer ion intensity
[3] = molecular target: MEDI1912 IgG (human); experiment: AUC; sedimentation velocity, 1 mg/mL, 20 °C, 20 mM sodium succinate, 125 mM arginine, pH 6.0 or 150 mM ammonium acetate, pH 6; 28,000 rpm; SEDFIT
[4] = molecular target: MEDI1912 (human); experiment: SPR; Biacore 2000, HBS-EP buffer; 100 RU MEDI1912 or MEDI1912_STT IgG amine coupled to a C1 sensor chip; two-fold dilutions of βNGF (10 nM to 78 fM) at 50 µl/min, 300-3600 s dissociation; 1:1 Langmuir fit
[5] = molecular target: MEDI1912_STT (human); experiment: as above

| Substance | Kd [1] [pM] | dimer as percent of the monomer ion intensity [2] [%] | stoichiometry N [2] | percent dimer [3] [%] | stoichiometry N [3] | koff [4] [s⁻¹] | kon [4] [M⁻¹ s⁻¹] | koff [5] [s⁻¹] | kon [5] [M⁻¹ s⁻¹] |
| --- | --- | --- | --- | --- | --- | --- | --- | --- | --- |
| MEDI1912 IgG (antibody) | 1.6 to 9.8 | 11.4 | < 4 | > 75 | 2 | – | – | – | – |
| recombinant βNGF (R&D Systems) (from UniProt P01138 122-241) (ligand) | – | – | – | – | – | 3.3e-05 to 0.0002 | 2.1e+07 | 3.2e-05 to 0.00015 | 1.8e+07 |
